These results are taken from patent publication US12427210B2, “Compounds comprising a fibroblast activation protein ligand and use thereof” (priority 2019, dated 2025).

Common to all, as to settings: remark: other sources report otherwise
Assay [1] addresses T1, dopamine transporter (h) (human), Q01959.
T1 chain: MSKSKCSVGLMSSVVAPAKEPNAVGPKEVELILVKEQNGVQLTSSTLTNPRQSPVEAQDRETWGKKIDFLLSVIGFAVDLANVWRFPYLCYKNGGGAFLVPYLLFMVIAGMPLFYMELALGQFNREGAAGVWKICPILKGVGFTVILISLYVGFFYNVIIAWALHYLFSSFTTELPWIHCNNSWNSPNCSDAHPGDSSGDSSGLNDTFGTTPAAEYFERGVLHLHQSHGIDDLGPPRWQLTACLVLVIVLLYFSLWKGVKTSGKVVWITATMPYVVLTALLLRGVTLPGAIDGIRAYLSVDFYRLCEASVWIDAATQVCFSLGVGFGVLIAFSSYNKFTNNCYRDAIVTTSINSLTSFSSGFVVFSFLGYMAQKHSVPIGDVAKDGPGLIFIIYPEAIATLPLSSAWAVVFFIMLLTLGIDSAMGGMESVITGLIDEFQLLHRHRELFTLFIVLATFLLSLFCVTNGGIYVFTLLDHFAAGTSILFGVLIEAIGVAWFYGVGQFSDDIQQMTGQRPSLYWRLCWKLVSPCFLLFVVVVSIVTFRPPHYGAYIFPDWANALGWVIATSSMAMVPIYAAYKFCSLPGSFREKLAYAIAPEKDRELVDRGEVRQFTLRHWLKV
In words: radioligand displacement, compound at 10 µM. For orientation: Displacement assays read how much labelled ligand stays bound in the presence of the test substance.

Substrate in assay [2]: N neuronal alpha 4beta 2 (h) (human), P43681
Kind of assay: radioligand displacement, compound at 10 µM.

For assay [3], the target named is T2, Potassium Channel hERG (human) (human), Q12809.
T2 chain: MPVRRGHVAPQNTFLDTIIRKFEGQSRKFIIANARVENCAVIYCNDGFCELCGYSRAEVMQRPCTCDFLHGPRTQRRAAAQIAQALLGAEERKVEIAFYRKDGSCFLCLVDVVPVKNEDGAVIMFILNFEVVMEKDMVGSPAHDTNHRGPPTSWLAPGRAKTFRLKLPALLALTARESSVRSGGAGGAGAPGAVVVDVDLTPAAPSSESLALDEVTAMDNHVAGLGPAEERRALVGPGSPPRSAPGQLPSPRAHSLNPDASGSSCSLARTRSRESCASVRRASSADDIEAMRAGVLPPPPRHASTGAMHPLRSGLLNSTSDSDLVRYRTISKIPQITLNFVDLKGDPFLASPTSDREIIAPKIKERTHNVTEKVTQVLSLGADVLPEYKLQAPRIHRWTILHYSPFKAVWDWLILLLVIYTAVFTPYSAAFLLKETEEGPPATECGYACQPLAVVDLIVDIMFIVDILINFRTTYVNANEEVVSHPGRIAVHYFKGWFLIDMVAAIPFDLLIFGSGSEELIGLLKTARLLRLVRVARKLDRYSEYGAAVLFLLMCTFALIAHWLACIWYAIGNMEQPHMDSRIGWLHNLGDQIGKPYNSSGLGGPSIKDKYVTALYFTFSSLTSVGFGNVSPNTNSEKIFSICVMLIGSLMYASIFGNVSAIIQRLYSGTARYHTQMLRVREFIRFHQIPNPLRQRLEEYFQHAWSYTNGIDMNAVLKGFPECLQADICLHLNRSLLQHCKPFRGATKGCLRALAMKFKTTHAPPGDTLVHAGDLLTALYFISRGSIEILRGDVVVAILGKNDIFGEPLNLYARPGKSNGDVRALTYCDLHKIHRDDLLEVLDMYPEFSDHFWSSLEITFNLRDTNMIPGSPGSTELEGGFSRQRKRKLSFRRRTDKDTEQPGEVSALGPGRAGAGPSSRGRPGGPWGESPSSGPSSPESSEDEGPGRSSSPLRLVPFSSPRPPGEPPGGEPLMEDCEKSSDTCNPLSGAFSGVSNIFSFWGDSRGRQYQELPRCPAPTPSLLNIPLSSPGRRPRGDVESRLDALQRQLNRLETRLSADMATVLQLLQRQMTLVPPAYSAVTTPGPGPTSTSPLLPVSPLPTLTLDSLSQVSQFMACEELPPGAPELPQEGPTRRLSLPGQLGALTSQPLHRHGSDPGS
Kind of assay: displacement of [3H] Dofetilide, compound at 10 µM.

In assay [4] the target is human fibroblast activation protein (FAP) on human WI-38 fibroblasts (human). Kind of assay: competitive FACS binding on FAP-expressing WI-38 cells against 3 nM Cy5-labeled compound; category A = pIC50 values >8.0. (A flow cytometer gives signals particle by particle.)

B1: Hex-[Cys(tMeBn(DOTA-PP))-Pro-Pro-Thr-Gln-Phe-Cys]-Asp-NH2 (3BP-3407) (peptide)
peptide: CPPTQFCD
modifications: here or on the partner: N-terminal hexanoyl (Hex); Cys1 and Cys7 cyclised through tMeBn carrying DOTA-PP; C-terminal amide
On to B1, for which the results for the % Inhibition of Specific Binding in assay [1], in assay [2] and in assay [3] were 12%, -8% and 2%, respectively.

B2: Hex-[Cys(tMeBn(DOTA-AET))-Pro-Pro-Thr-Gln-Phe-Cys]-OH (3BP-3554) (peptide)
peptide: CPPTQFC
modifications: here or on the partner: N-terminal hexanoyl (Hex); Cys1 and Cys7 cyclised through tMeBn carrying DOTA-AET; free C-terminal acid (-OH)
In the case of B2, in assay [4], the pIC50 Category (FACS) was over 8 pIC50. Besides, the figures for the % Inhibition of Specific Binding in assay [1], in assay [2] and in assay [3] were 7%, -2% and 6%, respectively.
